In paper PMC6028546, “Control of mitotic chromosome condensation by the fission yeast transcription factor Zas1”:

T1: Zas1 (short cDNA ORF, two zinc fingers) (Schizosaccharomyces pombe, UniProt Q9UTS5-2 1-845)
T1 sequence: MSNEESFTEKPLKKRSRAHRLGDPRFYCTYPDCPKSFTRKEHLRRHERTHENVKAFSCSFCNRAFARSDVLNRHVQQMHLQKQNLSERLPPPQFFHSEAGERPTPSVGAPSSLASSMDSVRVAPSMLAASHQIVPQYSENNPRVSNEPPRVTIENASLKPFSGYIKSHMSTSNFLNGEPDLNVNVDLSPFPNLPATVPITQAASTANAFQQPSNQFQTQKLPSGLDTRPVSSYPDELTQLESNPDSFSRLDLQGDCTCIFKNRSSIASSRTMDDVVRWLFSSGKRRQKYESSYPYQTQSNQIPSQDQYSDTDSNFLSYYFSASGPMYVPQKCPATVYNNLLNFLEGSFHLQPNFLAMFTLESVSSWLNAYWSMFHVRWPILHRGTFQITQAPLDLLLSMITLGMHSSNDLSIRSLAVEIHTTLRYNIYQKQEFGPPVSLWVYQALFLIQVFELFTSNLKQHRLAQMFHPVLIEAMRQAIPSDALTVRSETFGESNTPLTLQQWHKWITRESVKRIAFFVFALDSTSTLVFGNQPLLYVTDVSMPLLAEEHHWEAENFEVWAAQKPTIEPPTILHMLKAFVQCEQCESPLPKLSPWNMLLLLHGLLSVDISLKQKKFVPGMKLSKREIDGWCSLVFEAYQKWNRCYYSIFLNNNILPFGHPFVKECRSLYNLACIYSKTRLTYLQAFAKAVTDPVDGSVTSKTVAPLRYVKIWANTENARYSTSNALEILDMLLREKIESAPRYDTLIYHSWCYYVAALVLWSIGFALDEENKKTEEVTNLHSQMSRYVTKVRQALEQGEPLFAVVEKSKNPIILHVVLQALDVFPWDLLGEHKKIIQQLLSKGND

B1: Ppob1 (dsDNA)
DNA 1: AAAGCCCCCACGAAGGTCGTCTTTCCCCACATAGATTATT
DNA 2: AATAATCTATGTGGGGAAAGACGACCTTCGTGGGGGCTTT
B2: Pcnd1 (dsDNA)
DNA 1: AATGGACCCCCACACAGGACATATAGGTGGGGTTATTGT
DNA 2: ACAATAACCCCACCTATATGTCCTGTGTGGGGGTCCATT

What was measured:
[1] = target: Zas1 (recombinant, from the short zas1 cDNA ORF) (S. pombe); assay: SEC-MALS; analytical SEC coupled to multiangle light scattering of purified Zas1; two independent chromatography runs
[2] = target: T1, Zas1 (short cDNA ORF, two zinc fingers); assay: EMSA; 20 uM ZnCl2, 5 mM MgCl2; EMSA: 10 mM Tris-HCl pH 8.0, 125 mM NaCl, 5 mM MgCl2, 20 uM ZnCl2; 400 nM DNA, 0/200/400/800 nM Zas1; 90 min on ice; 1.8% agarose, Tris-acetate pH 8.7, 6 C; conditions: protein: recombinant; chain copies: 2; label: 5' 6-FAM on strand 1; blunt

Molecule | stoichiometry N [1] | binding result [2]
Zas1 (recombinant, from the short zas1 cDNA ORF) (natural protein) | 2 | 
B1 |  | binds
B2 |  | binds
